This is an account of results in patent publication US20100184088A1 (ONCOTHERAPY SCIENCE, published 2010).

Data set [1] addresses T1, recombinant GST-fused VEGFR1#1 (codons 800-1000).
T1 chain: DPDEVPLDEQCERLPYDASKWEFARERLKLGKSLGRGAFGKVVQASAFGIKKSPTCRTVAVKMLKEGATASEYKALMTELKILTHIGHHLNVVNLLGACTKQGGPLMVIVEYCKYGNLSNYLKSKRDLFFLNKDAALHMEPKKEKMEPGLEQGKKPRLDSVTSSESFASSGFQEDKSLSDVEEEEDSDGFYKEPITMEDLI

Data set [2] deals with T2, HA-tagged SMYD3 (human, UniProt Q9H7B4 1-428).
T2 construct: also called ZNFN3A1; not shown: HA tag
T2 sequence: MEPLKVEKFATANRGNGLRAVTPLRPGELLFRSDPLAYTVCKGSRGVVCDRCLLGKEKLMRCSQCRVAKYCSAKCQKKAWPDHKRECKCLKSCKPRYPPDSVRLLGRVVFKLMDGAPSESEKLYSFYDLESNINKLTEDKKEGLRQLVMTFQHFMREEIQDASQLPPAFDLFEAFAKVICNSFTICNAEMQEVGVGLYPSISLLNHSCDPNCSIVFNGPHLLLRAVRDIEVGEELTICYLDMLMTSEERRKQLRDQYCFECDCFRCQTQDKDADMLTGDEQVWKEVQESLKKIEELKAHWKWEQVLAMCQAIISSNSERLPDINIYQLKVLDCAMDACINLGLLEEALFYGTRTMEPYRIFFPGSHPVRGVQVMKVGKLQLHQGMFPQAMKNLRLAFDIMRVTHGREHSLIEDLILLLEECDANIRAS
The experiment in a line: co-immunoprecipitation (IP anti-HA, immunoblot anti-Flag), HEK293 cells. Here is the method:
Extraction of protein, IP, and Western blot analysis were performed according to methods described in the literature (Hamamoto R et al., S Nature cell biology 2004, 6(8): 731-40). Immunoblot analysis was carried out with anti-SMYD3 (Abcam, Cambridge, Mass.), anti-HA (Sigma, St Louis, Mo.), anti-Flag (Sigma), anti-GST (B D Pharmingen, San Diego, Calif.), anti-beta-actin (Sigma), or anti-phospho-Tyrosine (PY20; Sigma) antibodies. HRP-conjugated second antibody was used for the ECL Detection System (Amersham Biosciences, Piscataway, N.J.). Recombinant histone H3 and VEGFR1 (3108) were purchased from Upstate Biotechnology (Lake Placid, N.Y.) and Calbiochem (San Diego, Calif.), respectively.
Since VEGFR1 was methylated by SMYD3, the inventors investigated whether SMYD3 interacts with VEGFR1. The present inventors expressed Flag-tagged cytoplasmic regions of VEGFR1 together with HA-tagged SMYD3 in HEK293 cells. Immunoprecipitation with anti-HA antibody, and subsequent immunoblot analysis with anti-Flag antibody disclosed that SMYD3 associates with VEGFR1#1 (codons 800-1000) but not VEGFR1#2 or VEGFR1#3 (FIG. 3a). Consistently, IP with anti-Flag antibody and subsequent immunoblot analysis with anti-HA antibody corroborated the interaction between SMYD3 and VEGFR1#1 (FIG. 3a). […]
A general note: In western blotting, separated proteins are transferred to a membrane and probed.

Data set [3] concerns the target T3, HA-tagged VEGFR1 (human, UniProt P17948 800-1338, limits assumed).
T3 construct: also called HA-VEGFR1; cytoplasmic domain of VEGFR1; not shown: HA tag (pCMV-HA vector)
T3 sequence: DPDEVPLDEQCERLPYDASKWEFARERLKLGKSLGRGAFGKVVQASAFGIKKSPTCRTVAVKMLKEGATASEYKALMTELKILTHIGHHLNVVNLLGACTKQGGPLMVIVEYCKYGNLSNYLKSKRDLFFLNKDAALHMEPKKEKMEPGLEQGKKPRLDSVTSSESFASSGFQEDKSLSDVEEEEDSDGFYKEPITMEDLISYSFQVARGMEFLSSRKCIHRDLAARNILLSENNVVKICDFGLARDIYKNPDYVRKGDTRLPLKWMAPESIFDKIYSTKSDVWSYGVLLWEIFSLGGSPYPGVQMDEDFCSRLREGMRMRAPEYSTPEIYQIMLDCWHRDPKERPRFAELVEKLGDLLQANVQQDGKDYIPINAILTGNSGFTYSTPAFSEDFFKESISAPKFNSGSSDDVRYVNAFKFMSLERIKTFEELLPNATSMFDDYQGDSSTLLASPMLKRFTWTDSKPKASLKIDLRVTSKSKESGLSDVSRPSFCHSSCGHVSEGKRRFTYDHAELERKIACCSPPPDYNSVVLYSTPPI
The experiment in a line: co-immunoprecipitation (anti-HA or anti-Flag IP, western blot), HEK293 cells. From the text: FIG. 3 depicts the interaction between SMYD3 and VEGFR1. Part a depicts the interaction between SMYD3 and VEGFR1, examined by a co-immunoprecipitation assay using extract from HEK293 cells expressing HA-tagged SMYD3 and different regions of Flag-tagged VEGFR1 (VEGFR1#1, #2, and #3). Part b depicts the interaction of endogenous SMYD3 with VEGFR1. Whole cell extracts from SNU423, SW480, and MCF7 cells expressing both SMYD3 and VEGFR1 were precipitated with anti-SMYD3 antibody. The precipitants were immunoblotted with anti-VEGFR-1 antibody (upper panel) or anti-SMYD3 antibody (lower panel). Part c depicts the association of VEGFR1 with the SET domain of SMYD3. Wild type or deleted forms of Flag-tagged SMYD3 (N-20, delta 2, or delta 3) were co-expressed with HA-tagged VEGFR1 in HEK293 cells. IP was performed with either anti-HA or anti-Flag antibody, and the precipitants were analyzed by western blot analysis with anti-Flag (upper panel) or anti-HA (lower panel) antibody. Part d depicts the interaction of the cytoplasmic region of VEGFR1 with the SET domain of SMYD3 in vivo. Flag-tagged wild type or the SET domain of SMYD3 was co-expressed with HA-tagged VEGFR1 in HEK293 cells. Extracts from the cells were precipitated with anti-Flag (upper panel) or anti-HA (lower panel) antibodies, and the precipitants were analyzed by western blot analysis with anti-HA antibody. […]

B1: Flag-tagged wild-type SMYD3 (p3XFLAG-CMV-SMYD3) (protein)
chain: T2 sequence
B1: the “in vitro MTase assay, methylation compared to recombinant histone H3” value in data set [1] is “Approximately three-fold higher methylation of VEGFR1#1 was detected as compared to recombinant histone H3 in vitro (data not shown)”.

B2: Flag-tagged VEGFR1#3 (codons 1200-1338) (receptor)
chain: APKFNSGSSDDVRYVNAFKFMSLERIKTFEELLPNATSMFDDYQGDSSTLLASPMLKRFTWTDSKPKASLKIDLRVTSKSKESGLSDVSRPSFCHSSCGHVSEGKRRFTYDHAELERKIACCSPPPDYNSVVLYSTPPI
notes: Cytoplasmic fragment of VEGFR1 expressed in HEK293 cells; also called flag-VEGFR1#3; not shown: Flag tag (3xFlag vector)
Turning to B2, the binding result in data set [2] is listed as “no binding”.

B3: Flag-tagged SMYD3-delta 3 (codons 250-428) (enzyme)
chain: RKQLRDQYCFECDCFRCQTQDKDADMLTGDEQVWKEVQESLKKIEELKAHWKWEQVLAMCQAIISSNSERLPDINIYQLKVLDCAMDACINLGLLEEALFYGTRTMEPYRIFFPGSHPVRGVQVMKVGKLQLHQGMFPQAMKNLRLAFDIMRVTHGREHSLIEDLILLLEECDANIRAS
notes: Deleted form of SMYD3 lacking the SET domain; also called flag-SMYD3-D3; not shown: Flag tag
Regarding B3, the binding result in data set [3] is recorded as “no binding”.

B4: Flag-tagged VEGFR1#2 (codons 1000-1200) (receptor)
chain: ISYSFQVARGMEFLSSRKCIHRDLAARNILLSENNVVKICDFGLARDIYKNPDYVRKGDTRLPLKWMAPESIFDKIYSTKSDVWSYGVLLWEIFSLGGSPYPGVQMDEDFCSRLREGMRMRAPEYSTPEIYQIMLDCWHRDPKERPRFAELVEKLGDLLQANVQQDGKDYIPINAILTGNSGFTYSTPAFSEDFFKESISA
notes: Cytoplasmic fragment of VEGFR1 expressed in HEK293 cells; also called flag-VEGFR1#2; not shown: Flag tag (3xFlag vector)
On to B4, for which, in data set [2], the binding result is reported as “no binding”.
